Reference: patent publication US20100093634A1 (UNIVERSITY OF MARYLAND BALTIMORE, published 2010)

What was measured:
[1] = target: N2.1/ROMK chimera with the N375PNF tract replaced with AAAA; assay: cell-based or functional assay
myc-tagged ARH = target: T1, myc-tagged ARH (human, UniProt Q5SW96 1-308, limits assumed); assay: co-immunoprecipitation from COS-7 cells
T1 construct: Expressed in COS-7 cells
T1 sequence: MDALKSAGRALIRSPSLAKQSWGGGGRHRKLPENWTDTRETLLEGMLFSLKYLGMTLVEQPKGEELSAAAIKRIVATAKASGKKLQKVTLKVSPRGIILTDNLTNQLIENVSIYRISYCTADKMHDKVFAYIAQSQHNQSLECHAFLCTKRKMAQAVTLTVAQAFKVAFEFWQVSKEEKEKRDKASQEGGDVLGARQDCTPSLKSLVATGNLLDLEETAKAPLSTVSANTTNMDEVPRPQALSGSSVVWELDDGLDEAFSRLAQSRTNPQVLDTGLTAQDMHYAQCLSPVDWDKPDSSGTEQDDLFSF
Protocol: Using immunofluorescent confocal microscopy it was determined that ARH is predominately expressed in the distal nephron, where it co-localizes with ROMK in subapical and perinuclear compartments (FIG. 2A). See Example D. It was also determined that ROMK co-immunoprecipitates with ARH on anti-ARH antibody-bound beads but not with an unrelated IgG (FIG. 2B). The specificity of the ARH-ROMK co-immunoprecipitation was corroborated by similar studies with different antibodies, HA-epitope-tagged ROMK and myc-tagged-ARH in COS-7 cells (FIGS. 2C & D). Importantly, alanine replacement of the NPNF motif in ROMK completely abrogated the ARH-ROMK co-immunoprecipitation.

ARH co-expressed in COS-7 cells (from UniProt Q5SW96 1-308)
surface expression [1]: 100%

B1: HA-epitope-tagged mutant ROMK lacking the NPXF motif (alanine replacement of the NPNF motif) (other)
chain: MGASERSVFRVLIRALTERMFKHLRRWFITHIFGRSRQRARLVSKEGRCNIEFGNVDAQSRFIFFVDIWTTVLDLKWRYKMTVFITAFLGSWFLFGLLWYVVAYVHKDLPEFYPPDNRTPCVENINGMTSAFLFSLETQVTIGYGFRFVTEQCATAIFLLIFQSILGVIINSFMCGAILAKISRPKKRAKTITFSKNAVISKRGGKLCLLIRVANLRKSLLIGSHIYGKLLKTTITPEGETIILDQTNINFVVDAGNENLFFISPLTIYHIIDHNSPFFHMAAETLSQQDFELVVFLDGTVESTSATCQVRTSYVPEEVLWGYRFVPIVSKTKEGKYRVDFHNFGKTVEVETPHCAMCLYNEKDARARMKRGYDAAAAVLSEVDETDDTQM
notes: Expressed in COS-7 cells
binding result (myc-tagged ARH): no binding
